These results are taken from US20130011406A1 (KOLLTAN PHARMACEUTICALS, published 2013).

The labels stand for the following.
B1: full-length human IgG1 antibody Ab1 (antibody, V domains shown)
VH: EVQLLESGGGLVQPGGSLRLSCAASGFTFSNYLMSWVRQAPGKGLEWVSSIVPSGGFTHYADSVKGRFTISRDNSKNTLYLQMNSLRAEDTAVYYCARLQTGSWRVHAFDIWGQGTMVTVSS
VL: DIQMTQSPTSLSAFVGDRVTITCQASQDIGNYLNWYQQKSGEPPKLLVYDASFLKKGVPSRFSGSGSGTQYFLTIYSLQPEDFATYFCQHSDNLSVTFGGGTKVEVKR
notes: also called human monoclonal Ab1
B2: full-length human IgG1 antibody Ab21 (antibody, V domains shown)
VH: B1 VH
VL: B1 VL with N93S
notes: Derived from Ab1 by changing the N in VL CDR3 to S to remove a glycosylation site; also called human monoclonal Ab21
B3: Fab antibody Ab14 (Fab, V domains shown)
VH: EVQLLESGGGLVQPGGSLRLSCAASGFTFSRYAMWWVRQAPGKGLEWVSYIYSSGGQTGYADSVKGRFTISRDNSKNTLYLQMNSLRAEDTAVYYCARGGVTFDLWGRGTLVTVSS
VL: DIQMTQSPATLSVSPGERATLSCRASQGVSTYLAWYQQKPGQAPRLLIYGASTRATGIPARFSGSGSGTDFTLTINSLELEDFAVYYCQQRRSWPPTFGQGTKVEIK
notes: Fab from a phage library
B4: Fab antibody Ab16 (Fab, V domains shown)
VH: EVQLLESGGGLVQPGGSLRLSCAASGFTFSQYVMFWVRQAPGKGLEWVSSIYPSGGHTLYADSVKGRFTISRDNSKNTLYLQMNSLRAEDTAVYYCAKHARGYNRGYFDSWGRGTLVTVSS
VL: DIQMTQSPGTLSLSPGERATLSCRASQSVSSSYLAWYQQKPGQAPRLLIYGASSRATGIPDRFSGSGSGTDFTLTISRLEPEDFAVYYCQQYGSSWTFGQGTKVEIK
notes: Fab from a phage library
B5: Fab antibody Ab18 (Fab, V domains shown)
VH: EVQLLESGGGLVQPGGSLRLSCAASGFTFSWYAMWWVRQAPGKGLEWVSYISSSGGATRYADSVKGRFTISRDNSKNTLYLQMNSLRAEDTAVYYCATVLQYGAFDIWGQGTMVTVSS
VL: QSALTQPPSTSGTPGQRVTISCSGSSSNIGSNYVYWYQQLPGTAPKVLIYRNNKRPSGVPDRFSGSKSGTSASLAISGLRSEDEADYYCAAWDDSLNGVIFGGGTRLTVL
notes: Fab from a phage library
B6: Fab antibody Ab15 (Fab, V domains shown)
VH: EVQLLESGGGLVQPGGSLRLSCAASGFTFSNYTMMWVRQAPGKGLEWVSGIRPSGGGTMYADSVKGRFTISRDNSKNTLYLQMNSLRAEDTAVYYCASVVNHKFDNWGQGTLVTVSS
VL: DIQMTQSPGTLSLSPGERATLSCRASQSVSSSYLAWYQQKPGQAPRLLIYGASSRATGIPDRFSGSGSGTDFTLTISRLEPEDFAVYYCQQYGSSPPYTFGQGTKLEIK
notes: Fab from a phage library
B7: Fab antibody Ab4 (Fab, V domains shown)
VH: EVQLLESGGGLVQPGGSLRLSCAASGFTFSWYWMYWVRQAPGKGLEWVSGIYPSGGFTSYADSVKGRFTISRDNSKNTLYLQMNSLRAEDTAVYYCARSYYYGSGSYYNSASFDYWGQGTLVTVSS
VL: DIQMTQSPSSLSASVGDRVAITCRASQSIDTYLNWYQQKPGKAPKLLIYAASKLEDGVPSRFSGSGTGTDFTLTIRSLQPEDFASYFCQQSYSSPGITFGPGTKVEIK
notes: Fab from a phage library
B8: Fab antibody Ab3 (Fab, V domains shown)
VH: EVQLLESGGGLVQPGGSLRLSCAASGFTFSPYNMMWVRQAPGKGLEWVSRISPSGGDTHYADSVKGRFTISRDNSKNTLYLQMNSLRAEDTAVYYCARGSRSSWSTPYYWGQGILVTVSS
VL: B5 VL with T10A, S31N, V47L, N52S, K54Q, T70A, N97I, V99P, I100V, R106K
notes: Fab from a phage library
B9: Fab antibody Ab2 (Fab, V domains shown)
VH: EVQLLESGGGLVQPGGSLRLSCAASGFTFSNYKMGWVRQAPGKGLEWVSWIYPSGGGTFQADSVKGRFTISRDNSKNTLYLQMNSLRAEDTAVYYCARVRVGSTGNFDYWGQGTLVTVSS
VL: DIQMTQSPATLSLSPGERATLYCRASQSVSNYVAWYQQRPGQAPRLLMYDTSKRATGIPARFSGSGSGTDFTLTISSLEPEDFAVYYCQQRSYWFAFGGGTKVEIK
notes: Fab from a phage library
B10: Fab antibody Ab17 (Fab, V domains shown)
VH: EVQLLESGGGLVQPGGSLRLSCAASGFTFSNYTMIWVRQAPGKGLEWVSRIWPSGGGTDYADSVKGRFTISRDNSKNTLYLQMNSLRAEDTATYYCARRVGASRYFDLWGRGTLVTVSS
VL: DIQMTQSPSSLSASVGDRVTVTCRASQNIDNYLNWYQQRPGKAPELLIYAASSLQSGVPSRFSGSGSGTDFTLTISSLQPEDFATYYCQQSYSNSRTFGQGTKVEIK
notes: Fab from a phage library
B11: Fab antibody Ab13 (Fab, V domains shown)
VH: EVQLLESGGGLVQPGGSLRLSCAASGFTFSNYTMHWVRQAPGKGLEWVSVIYPSGGMTKYADSVKGRFTISRDNSKNTLYLQMNSLRAEDTAVYYCARGSTTFDYWGQGTLVTVSS
VL: DIQMTQSPGTLSLSPGERATLSCRASQSVRSNYLAWYQQKPGQAPRLLIYGASSRATGIPDRFSGSGSGTDFTLTISRLEPEDFAVYYCQQRSNWPITFGQGTRLEIK
notes: Fab from a phage library
B12: Fab antibody Ab20 (Fab, V domains shown)
VH: EVQLLESGGGLVQPGGSLRLSCAASGFTFSRYGMAWVRQAPGKGLEWVSSIRPSGGYTAYADSVKGRFTISRDNSKNTLYLQMNSLRAEDTAVYYCARLPARFDYYYGLDVWGQGTTVTVSS
VL: DIQMTQSPATLSLSPGERATLSCRASQSVNIYLAWYQQRPGQAPRLLIYDASNRAIGVPARFSGTGSGTDFTLTISSLEPEDSAVYYCQQRDSWPPRLSFGGGTKVEIK
notes: Fab from a phage library
B13: Fab antibody Ab19 (Fab, V domains shown)
VH: EVQLLESGGGLVQPGGSLRLSCAASGFTFSNYQMQWVRQAPGKGLEWVSSIRPSGGSTQYADSVKGRFTISRDNSKNTLYLQMNSLRAEDTAVYYCARGSSHAFDIWGQGTMVTVSS
VL: DIQMTQSPGTLSLSPGERATLSCRASQSFRSSYLAWYQQKPGQAPRLLIYDTSTRATGIPDRFSGSGSGTDFTLTISRLEPEDFAVYYCQQYGSSPPMYTFGQGTKLEIK
notes: Fab from a phage library
B14: Fab antibody Ab12 (Fab, V domains shown)
VH: EVQLLESGGGLVQPGGSLRLSCAASGFTFSFYKMHWVRQAPGKGLEWVSGIWPSGGYTEYADSVKGRFTISRDNSKNTLYLQMNSLRAEDTAVYYCARSSGYHIDYWGQGTLVTVSS
VL: DIQMTQSPGTLSLSPGERATLYCRASQSVKSNYLAWYQQKPGQAPRLLIYGASTRATDIPDRFSGSGSGTDFTLTISRLEPEDFAVYYCQQYGSSLSYTFGQGTKLEIK
notes: Fab from a phage library
B15: Fab antibody Ab11 (Fab, V domains shown)
VH: EVQLLESGGGLVQPGGSLRLSCAASGFTFSNYRMMWVRQAPGKGLEWVSGIYPSGGGTFYADSVKGRFTISRDNSKNTLYLQMNSLRAEDTAVYYCARKKMATFAAFDIWGQGTMVTVSS
VL: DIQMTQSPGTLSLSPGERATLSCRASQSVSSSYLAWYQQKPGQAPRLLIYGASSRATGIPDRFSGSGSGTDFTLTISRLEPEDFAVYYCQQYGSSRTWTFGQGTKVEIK
notes: Fab from a phage library

Numbering of substitutions follows the chain as printed. Bounds are passed on as bounds.

T2 sequence (P10721 other isoform, or with tags, fused parts or gaps limits assumed): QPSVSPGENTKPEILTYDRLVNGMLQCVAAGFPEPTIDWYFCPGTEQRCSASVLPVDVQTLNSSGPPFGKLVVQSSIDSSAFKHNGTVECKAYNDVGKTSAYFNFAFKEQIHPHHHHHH

In the first assay the target is full-length, wild-type human KIT (human, UniProt P10721 26-976). The assay is described as follows: cell-based or functional assay.
full-length, wild-type human KIT, sequence (P10721 other isoform, or with tags, fused parts or gaps limits assumed): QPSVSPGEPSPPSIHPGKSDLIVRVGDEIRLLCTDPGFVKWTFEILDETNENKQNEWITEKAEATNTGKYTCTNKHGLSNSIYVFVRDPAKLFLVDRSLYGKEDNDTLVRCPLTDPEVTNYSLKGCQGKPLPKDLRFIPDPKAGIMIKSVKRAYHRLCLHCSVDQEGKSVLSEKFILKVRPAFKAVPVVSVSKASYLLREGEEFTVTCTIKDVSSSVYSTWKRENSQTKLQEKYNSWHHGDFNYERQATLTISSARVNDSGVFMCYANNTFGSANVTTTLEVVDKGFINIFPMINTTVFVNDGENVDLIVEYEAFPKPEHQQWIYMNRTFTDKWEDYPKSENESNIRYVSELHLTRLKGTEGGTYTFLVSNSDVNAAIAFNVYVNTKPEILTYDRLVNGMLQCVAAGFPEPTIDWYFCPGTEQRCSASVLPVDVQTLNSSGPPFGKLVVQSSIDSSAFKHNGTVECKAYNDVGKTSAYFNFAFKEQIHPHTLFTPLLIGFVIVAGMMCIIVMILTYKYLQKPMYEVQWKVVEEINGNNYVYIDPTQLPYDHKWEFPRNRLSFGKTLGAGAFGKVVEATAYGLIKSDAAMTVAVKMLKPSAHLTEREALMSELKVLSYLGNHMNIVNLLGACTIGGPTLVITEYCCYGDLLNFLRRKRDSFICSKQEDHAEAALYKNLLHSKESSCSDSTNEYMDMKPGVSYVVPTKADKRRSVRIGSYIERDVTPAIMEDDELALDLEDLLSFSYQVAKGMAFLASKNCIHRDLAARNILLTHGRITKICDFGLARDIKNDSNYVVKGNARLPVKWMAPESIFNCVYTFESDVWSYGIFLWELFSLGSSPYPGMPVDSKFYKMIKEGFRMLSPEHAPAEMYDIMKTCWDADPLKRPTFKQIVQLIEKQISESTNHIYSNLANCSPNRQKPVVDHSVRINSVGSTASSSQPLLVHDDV
For B1, the “50% inhibition concentration (IC50) of tyrosine phosphorylation of the cytoplasmic domain of KIT (cell-based phospho-KIT assay)” value was found to be 2.2 nM. In the case of B2, the “50% inhibition concentration (IC50) of tyrosine phosphorylation of the cytoplasmic domain of KIT (cell-based phospho-KIT assay)” value came to 1.3 nM.

The target of the next assay is T1, recombinant D4 domain polypeptide of human KIT (V308 to K412, with His tag) (human, UniProt P10721 26-412).
T1 construct: also called D4 domain of human KIT
T1 sequence (P10721 other isoform, or with tags, fused parts or gaps limits assumed): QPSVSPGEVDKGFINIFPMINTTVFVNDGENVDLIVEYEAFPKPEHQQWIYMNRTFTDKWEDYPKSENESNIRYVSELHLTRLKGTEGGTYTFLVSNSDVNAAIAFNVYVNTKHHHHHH
Put plainly: solid phase ELISA, polypeptide coated on plate.
For the molecule B3, the binding result is “no binding”. Same read-out and setting: for B4 the value was “no binding”.

Take B5: the binding result is reported as “no binding”. For the molecule B6, the binding result was “no binding”.

With B7, the binding result is on record as “no binding”.

A further assay has as its target T2, recombinant D5 domain polypeptide of human KIT (N410 to H515, with His tag) (human, UniProt P10721 26-519).
T2 construct: also called D5 domain of human KIT
Put plainly: solid phase ELISA, polypeptide coated on plate.
As to B3, the binding result is “no binding”. Still for that read-out and setting: for B4 the value was “no binding”; for B5, “no binding”; for B6, “no binding”. The same measure, in the same setting: for B7 the value was “no binding”.

The target of the next assay is T1, recombinant D4 domain polypeptide of …. The assay is described as follows: solid phase ELISA, D4 polypeptide coated on plate.
Consider B8, for which the binding result is listed as “binds”. The same measure, in the same setting: for B9 the value was “binds”. Consider B10, for which the binding result is “binds”.

For the molecule B11, the binding result was “binds”. Same read-out and setting: under B12 stands “binds”.

Another assay deals with T2, recombinant D5 domain polypeptide of …. The assay is described as follows: solid phase ELISA, D5 polypeptide coated on plate.
For the molecule B13, the binding result is reported as “binds”.

The target of another assay is T3, recombinant KIT D4/D5 polypeptide (D4/D5 region of human KIT, V308 to H515, with 5xHis tag) (human, UniProt P10721 26-519).
T3 construct: also called recombinant antigen; recombinant IG domain four and five of the extracellular region of KIT
T3 sequence (P10721 other isoform, or with tags, fused parts or gaps limits assumed): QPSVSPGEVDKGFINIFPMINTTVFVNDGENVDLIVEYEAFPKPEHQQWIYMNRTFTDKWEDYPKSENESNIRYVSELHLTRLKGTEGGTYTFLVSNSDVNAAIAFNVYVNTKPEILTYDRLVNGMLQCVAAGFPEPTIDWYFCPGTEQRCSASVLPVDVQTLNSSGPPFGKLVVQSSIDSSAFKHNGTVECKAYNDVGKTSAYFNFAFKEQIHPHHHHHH
Put plainly: solid phase ELISA, D4/D5 polypeptide coated on plate. As to the method:
(§1) Coating plates with antigen: Recombinant antigen containing the D4/D5 region of the KIT extracellular Ig-like region (see FIG. 2A) were absorbed to 96-well microtiter plates. 10 μg of recombinant antigen (i.e., D4/D5 region of KIT) were diluted into 10 mL of borate buffer, and 100 μL of the antigen solution were added to each well of a 96 well plate. The 96 well plate was covered with a plate sealer, was incubated at 4° C. overnight, and then stored at −80° C. until the day of the assay.
ELISA: The plate with the absorbed antigen was removed from the −80° C. freezer and was allowed to thaw at room temperature. The borate buffer was removed by flicking the plate into the sink and blotting the plate dry. 200 μL of the blocking buffer were added to each well and allowed to incubate at room temperature for one hour. The blocking buffer was removed, again by flicking the plate into the sink. Then, the diluted solution of test antibodies and controls (were added to the plate in a volume of 50 μL and incubated at room temperature for one hour. The antibody solutions were removed, and the plate was washed four times with 300 μL of wash buffer with five minute incubations. After the last wash, the plate was blotted dry. The diluted secondary antibody solution was added to each well in a volume of 100 μL and allowed to incubate for one hour at room temperature. The diluted secondary antibody solution was removed, and the plate was washed four times with 300 μL of wash buffer with five minute incubations. The plate was then blotted dry, and freshly mixed substrate solution was added to each well in a volume of 100 μL and was allowed to incubate at room temperature for 30 minutes. Subsequently, 100 μL of 2NH₂SO₄ were added to each well and immediately read on the plate reader. An irrelevant antibody served as the negative control, and an anti-KIT antibody against the D4 and/or D5 domain of the extracellular region of KIT served as the positive control. OD values for each sample were obtained at a wavelength of 450 nm.
Turning to B3, the binding result is listed as “binds”.

Take B4: the binding result is listed as “binds”. The same measure, in the same setting: for B5 the value was “binds”; for B6, “binds”. With B7, the binding result is reported as “binds”.

The next assay has as its target T3, recombinant KIT D4/D5 polypeptide …. The assay is described as follows: solid phase ELISA, D4/D5 antigen coated on plate, Fab; concentration at 50% binding. The procedure: as §1
ELISA: The plate with the absorbed antigen was removed from the −80° C. freezer and was allowed to thaw at room temperature. The borate buffer was removed by flicking the plate into the sink and blotting the plate dry. 200 μL of the blocking buffer were added to each well and allowed to incubate at room temperature for one hour. The blocking buffer was removed, again by flicking the plate into the sink. […] Subsequently, 100 μL of 2NH₂SO₄ were added to each well and immediately read on the plate reader. […]
As to B14, the EC50 was at most 300 nM. The same measure, in the same setting: under B15 stands at most 300 nM.

Another assay shares this target. Put plainly: solid phase ELISA, recombinant D4/D5 region coated on plate, full-length human IgG1. As to the method:
Serial antibody dilutions were prepared as follows. A starting antibody concentration of 300 nM (or lower depending on sample) was diluted down 1:3 in dilution buffer. Specifically, 200 μl of the starting concentration (top row of dilution plate) was prepared, and 75 μl was diluted into 150 μl in the row below. The dilution was mixed, and the dilution step was repeated down the plate. From the dilution plate, 100 μl was transferred to the assay plate.
The binding assays were carried out as follows. The plate coated with antigen (i.e., recombinant D4/D5 region of KIT) were removed from the −80° C. freezer and were allowed to warm to room temperature. The borate buffer was removed by flicking the plate into the sink and blotting it dry. 200 μL of the blocking buffer (1% BSA/TBS) was added and incubated at room temperature for one hour. The blocking buffer was then removed by flicking the plate into the sink, and blotting dry. Then, the serially diluted antibodies and controls were added to the plate in a volume of 100 μL, and the plate was sealed and incubated at room temperature for one hour.
For B1, the EC50 amounted to 0.171 nM. Same read-out and setting: under B2 stands 0.156 nM.
